Data published in US20220324939A1 (Regeneron, published 2022).
Where a chain is given by its changes, count along the chain named.

T1: MAGE-A4 peptide on HLA-A*02:01 (human)
T1 peptide: KVLEHVVRV

B1: PN41867 (TCR, V domains shown)
V domain 1: AQTVTQSQPEMSVQEAETVTLSCTYDTSENNYYLFWYKQPPSRQMILVIRQEAYKQQNATENRFSVNFQKAAKSFSLKISDSQLGDTAMYFCAFMKTQGGSEKLVFGKGTKLTVNP
V domain 2: AAGVIQSPRHLIKEKRETATLKCYPIPRHDTVYWYQQGPGQDPQFLISFYEKMQSDKGSIPDRFSAQQFSDYHSELNMSSLELGDSALYFCASSLVGYGYTFGSGTRLTVV
notes: stained with anti-mouse TCR constant region H57-597; full-length chains on transfected CHO cells; also called TCR No. 36
B2: PN41805 (TCR, V domains shown)
V domain 1: AQTVTQSQPEMSVQEAETVTLSCTYDTSENNYYLFWYKQPPSRQMILVIRQEAYKQQNATENRFSVNFQKAAKSFSLKISDSQLGDTAMYFCAFGMYSGGGADGLTFGKGTHLIIQP
V domain 2: AAGVIQSPRHLIKEKRETATLKCYPIPRHDTVYWYQQGPGQDPQFLISFYEKMQSDKGSIPDRFSAQQFSDYHSELNMSSLELGDSALYFCASSPTGTGDGYTFGSGTRLTVV
notes: stained with anti-mouse TCR constant region H57-597; full-length chains on transfected CHO cells; also called TCR No. 30
B3: PN41654 (TCR, V domains shown)
V domain 1: GESVGLHLPTLSVQEGDNSIINCAYSNSASDYFIWYKQESGKGPQFIIDIRSNMDKRQGQRVTVLLNKTVKHLSLQIAATQPGDSAVYFCAEKRDNYGQNFVFGPGTRLSVLP
V domain 2: DVKVTQSSRYLVKRTGEKVFLECVQDMDHENMFWYRQDPGLGLRLIYFSYDVKMKEKGDIPEGYSVSREKKERFSLILESASTNQTSMYLCASSLYSYGYTFGSGTRLTVV
notes: stained with anti-mouse TCR constant region H57-597; full-length chains on transfected CHO cells; also called TCR No. 22
B4: PN41746 (TCR, V domains shown)
V domain 1: AQTVTQSQPEMSVQEAETVTLSCTYDTSESDYYLFWYKQPPSRQMILVIRQEAYKQQNATENRFSVNFQKAAKSFSLKISDSQLGDAAMYFCAYRSATGNQFYFGTGTSLTVIP
V domain 2: DVKVTQSSRYLVKRTGEKVFLECVQDMDHENMFWYRQDPGLGLRLIYFSYDVKMKEKGDIPEGYSVSREKKERFSLILESASTNQTSMYLCASSLWGLNTEAFFGQGTRLTVV
notes: stained with anti-mouse TCR constant region H57-597; full-length chains on transfected CHO cells; also called TCR No. 28
B5: PN41656 (TCR, V domains shown)
V domain 1: AQKITQTQPGMFVQEKEAVTLDCTYDTSDPSYGLFWYKQPSSGEMIFLIYQGSYDQQNATEGRYSLNFQKARKSANLVISASQLGDSAMYFCAMRDLTTSGTYKYIFGTGTRLKVLA
V domain 2: B4 V domain 2 with L95F, W96G, L98W, N99G, T100Y, E101G, A102Y, F103T, Q106S
notes: stained with anti-mouse TCR constant region H57-597; full-length chains on transfected CHO cells; also called TCR No. 23
B6: PN41820 (TCR, V domains shown)
V domain 1: AQSVTQPGSHVSVSEGALVLLRCNYSSSVPPYLFWYVQYPNQGLQLLLKYTTGATLVKGINGFEAEFKKSETSFHLTKPSAHMSDAAEYFCAVSSGSARQLTFGSGTQLTVLP
V domain 2: B4 V domain 2 with L95H, W96D, G97R, L98W, N99D, T100Y, E101G, A102Y, F103T, Q106S
notes: stained with anti-mouse TCR constant region H57-597; full-length chains on transfected CHO cells; also called TCR No. 31
B7: PN41475 (TCR, V domains shown)
V domain 1: B4 V domain 1 with E61V
V domain 2: B4 V domain 2 with L98S
notes: stained with anti-mouse TCR constant region H57-597; full-length chains on transfected CHO cells; also called TCR No. 1
B8: PN41822 (TCR, V domains shown)
V domain 1: B4 V domain 1
V domain 2: B4 V domain 2 with G97A
notes: stained with anti-mouse TCR constant region H57-597; full-length chains on transfected CHO cells; also called TCR No. 32
B9: PN41829 (TCR, V domains shown)
V domain 1: B4 V domain 1
V domain 2: B4 V domain 2 with W96F, G97A
notes: stained with anti-mouse TCR constant region H57-597; full-length chains on transfected CHO cells; also called TCR No. 33
B10: PN41690 (TCR, V domains shown)
V domain 1: B4 V domain 1 with T98I
V domain 2: B4 V domain 2 with L98V
notes: stained with anti-mouse TCR constant region H57-597; full-length chains on transfected CHO cells; also called TCR No. 24
B11: PN41494 (TCR, V domains shown)
V domain 1: B4 V domain 1
V domain 2: B4 V domain 2 with L98W, T100S, E101P, A102L, F103H, Q106N, V113T
notes: stained with anti-mouse TCR constant region H57-597; full-length chains on transfected CHO cells; also called TCR No. 2
B12: PN41577 (TCR, V domains shown)
V domain 1: B4 V domain 1 with T98P
V domain 2: B4 V domain 2 with L98T, T100E, E101K, A102L, Q106S, R109Q, T111S, V113L
notes: stained with anti-mouse TCR constant region H57-597; full-length chains on transfected CHO cells; also called TCR No. 16
B13: PN41523 (TCR, V domains shown)
V domain 1: B4 V domain 1 with T98P
V domain 2: B4 V domain 2
notes: stained with anti-mouse TCR constant region H57-597; full-length chains on transfected CHO cells; also called TCR No. 7
B14: PN41702 (TCR, V domains shown)
V domain 1: B4 V domain 1
V domain 2: B4 V domain 2 with G97A, L98V, T100E, E101K, A102L, Q106S, R109Q, T111S, V113L
notes: stained with anti-mouse TCR constant region H57-597; full-length chains on transfected CHO cells; also called TCR No. 25
B15: PN41852 (TCR, V domains shown)
V domain 1: B4 V domain 1 with T98L, Q101D, F102M, Y103R, T106A, S109R, I113K
V domain 2: B4 V domain 2 with G97A
notes: stained with anti-mouse TCR constant region H57-597; full-length chains on transfected CHO cells; also called TCR No. 35
B16: PN41607 (TCR, V domains shown)
V domain 1: B4 V domain 1 with T98S
V domain 2: B4 V domain 2 with L98T, T100E, E101K, A102L, Q106S, R109Q, T111S, V113L
notes: stained with anti-mouse TCR constant region H57-597; full-length chains on transfected CHO cells; also called TCR No. 17
B17: PN41532 (TCR, V domains shown)
V domain 1: B4 V domain 1 with T98E
V domain 2: B4 V domain 2
notes: stained with anti-mouse TCR constant region H57-597; full-length chains on transfected CHO cells; also called TCR No. 8
B18: PN41868 (TCR, V domains shown)
V domain 1: B4 V domain 1
V domain 2: B4 V domain 2 with L98T, N99H, T100E, E101K, A102L, Q106S, R109Q, T111S, V113L
notes: stained with anti-mouse TCR constant region H57-597; full-length chains on transfected CHO cells; also called TCR No. 37
B19: PN41608 (TCR, V domains shown)
V domain 1: B4 V domain 1 with T98P
V domain 2: B4 V domain 2 with L95F, L98W
notes: stained with anti-mouse TCR constant region H57-597; full-length chains on transfected CHO cells; also called TCR No. 18
B20: PN41513 (TCR, V domains shown)
V domain 1: B4 V domain 1 with T98P
V domain 2: B4 V domain 2 with W96F, G97A, L98T, T100E, E101K, A102L, Q106S, R109Q, T111S, V113L
notes: stained with anti-mouse TCR constant region H57-597; full-length chains on transfected CHO cells; also called TCR No. 3
B21: PN41520 (TCR, V domains shown)
V domain 1: B4 V domain 1 with T98R
V domain 2: B4 V domain 2 with L98V, T100S, E101P, A102L, F103H, Q106N, V113T
notes: stained with anti-mouse TCR constant region H57-597; full-length chains on transfected CHO cells; also called TCR No. 6
B22: PN41869 (TCR, V domains shown)
V domain 1: B4 V domain 1 with A97S
V domain 2: B4 V domain 2 with L98T, T100E, E101K, A102L, Q106S, R109Q, T111S, V113L
notes: stained with anti-mouse TCR constant region H57-597; full-length chains on transfected CHO cells; also called TCR No. 38
B23: PN41565 (TCR, V domains shown)
V domain 1: B4 V domain 1 with A97P
V domain 2: B4 V domain 2 with G97A, L98M
notes: stained with anti-mouse TCR constant region H57-597; full-length chains on transfected CHO cells; also called TCR No. 13
B24: PN41559 (TCR, V domains shown)
V domain 1: B4 V domain 1
V domain 2: B4 V domain 2 with L98W, N99G
notes: stained with anti-mouse TCR constant region H57-597; full-length chains on transfected CHO cells; also called TCR No. 12
B25: PN41568 (TCR, V domains shown)
V domain 1: B4 V domain 1 with T98R
V domain 2: B4 V domain 2 with L98T, T100E, E101K, A102L, Q106S, R109Q, T111S, V113L
notes: stained with anti-mouse TCR constant region H57-597; full-length chains on transfected CHO cells; also called TCR No. 14
B26: PN41617 (TCR, V domains shown)
V domain 1: B4 V domain 1 with T98S
V domain 2: B4 V domain 2 with L98M
notes: stained with anti-mouse TCR constant region H57-597; full-length chains on transfected CHO cells; also called TCR No. 20
B27: PN41518 (TCR, V domains shown)
V domain 1: B4 V domain 1 with T98P
V domain 2: B4 V domain 2 with G97A, L98T, T100E, E101K, A102L, Q106S, R109Q, T111S, V113L
notes: stained with anti-mouse TCR constant region H57-597; full-length chains on transfected CHO cells; also called TCR No. 5
B28: PN41573 (TCR, V domains shown)
V domain 1: B4 V domain 1
V domain 2: B4 V domain 2 with L98T, T100E, E101K, A102L, Q106S, R109Q, T111S, V113L
notes: stained with anti-mouse TCR constant region H57-597; full-length chains on transfected CHO cells; also called TCR No. 15
B29: PN41703 (TCR, V domains shown)
V domain 1: DAKTTQPPSMDCAEGRAANLPCNHSTISGNEYVYWYRQIHSQGPQYIIHGLKNNETNEMASLIITEDRKSSTLILPHATLRDTAVYYCIVRPGGTYKYIFGTGTRLKVLA
V domain 2: DVKVTQSSRYLVKRTGEKVFLECVQDMDHENMFWYRQDPGLGLRLIYFSYDVKMKEKGDIPEGYSVSREKKERFSLILESASTNQTSMYLCATGGDNQPQHFGDGTRLSIL
notes: stained with anti-mouse TCR constant region H57-597; full-length chains on transfected CHO cells; also called TCR No. 26

Experiments:
[1] = target: T2, soluble HLA-A2 (…) tetramer (human); experiment: flow cytometry, HLA-A2 (…) tetramer staining of CHO cells transfected with the TCR
T2 construct: Bought tetramer reagent; also called MAGE-A4/HLA tetramer reagent; HLA-A02:01 MAGE-A4 tetramer
Procedure: Samples were then analyzed on an LSRFortessa X-20 (BD Biosciences, San Jose, Calif.).

[2] = target: T1, MAGE-A4 peptide on HLA-A*02:01; experiment: multimer staining

| Binder | % in Ag+ gate >250 MFI, >1% [1] [%] | binding result [2] |
| --- | --- | --- |
| B1 | 73 | recognises |
| B2 | 30.4 | recognises |
| B3 | 36.2 | recognises |
| B4 | 90.2 | recognises |
| B5 | 13.8 | recognises |
| B6 | 8.32 | recognises |
| B7 | 65.5 | recognises |
| B8 | 63.5 | recognises |
| B9 | 19.5 | recognises |
| B10 | 75.3 | recognises |
| B11 | 9.24 | recognises |
| B12 | 80 | recognises |
| B13 | 90.5 | recognises |
| B14 | 8.13 | recognises |
| B15 | 18 | recognises |
| B16 | 81 | recognises |
| B17 | 85.4 | recognises |
| B18 | 67.1 | recognises |
| B19 | 77 | recognises |
| B20 | 29.6 | recognises |
| B21 | 16.9 | recognises |
| B22 | 76.5 | recognises |
| B23 | 4.02 | recognises |
| B24 | 74.3 | recognises |
| B25 | 82.9 | recognises |
| B26 | 90.6 | recognises |
| B27 | 34.9 | recognises |
| B28 | 85.7 | recognises |
| B29 | 42.5 | recognises |
